Results on one molecule are retold here after article PMC3716654, “The UmuC subunit of the E. coli DNA polymerase V shows a unique interaction with the β-clamp processivity factor” (BMC Structural Biology, 2013).

The target of this test is T1, E. coli β-clamp processivity factor (E. coli, UniProt P0A988 1-366).
T1 construct: DNA polymerase III β subunit (β sliding clamp, dnaN), E. coli, full length, from plasmid pACYC11-dnaN; residues up to Leu-366 are named; The last residue of the hexa-histidine tag is modelled in both subunits; also called sliding clamp; not shown: His6, N-terminal, kept
Nature of the test: crystal structure; β-clamp/Dylight649-UmuC peptide complex purified by SEC, 15 mg/ml; crystallised in 200 mM calcium acetate, 200 mM MES pH 6.5, 14% PEG 6000, sitting drop, 12°C; 2.5 Å. As to conditions: both partners purified. (Size exclusion chromatography separates by hydrodynamic size, large species first.)

Where no end group is shown, it is not given here. Dylight649 = Dylight649 fluorophore attached through the cysteine

T1 sequence (P0A988 whole entry): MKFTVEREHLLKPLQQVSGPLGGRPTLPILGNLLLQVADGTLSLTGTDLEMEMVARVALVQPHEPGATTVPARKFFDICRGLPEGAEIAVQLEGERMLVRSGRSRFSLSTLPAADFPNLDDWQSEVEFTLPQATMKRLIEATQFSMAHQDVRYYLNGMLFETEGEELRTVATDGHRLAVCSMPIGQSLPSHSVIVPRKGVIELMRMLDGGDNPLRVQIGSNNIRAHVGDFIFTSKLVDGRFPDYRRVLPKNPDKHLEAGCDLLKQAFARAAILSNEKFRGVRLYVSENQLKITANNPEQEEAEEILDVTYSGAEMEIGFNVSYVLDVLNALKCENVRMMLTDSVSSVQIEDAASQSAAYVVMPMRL

B1: Dylight649-UmuC synthetic peptide (Dylight649-C-QGVAQLNLFDD) (peptide)
peptide: C(Dylight649)QGVAQLNLFDD
notes: cysteine added to permit linkage of the chromophore; not a UmuC residue; 12-mer including the added N-terminal cysteine; Only 356-361 (chain D) and 357-361 (chain C) are ordered in the structure; also called Dylight649-Pol V synthetic peptide; UmuC peptide; source: synthetic peptide (Cambridge Peptides)
Consider B1, for which the binding result is recorded as “binds”.
